B1: human Fas-TM (transmembrane domain peptide of human Fas, C178S) (peptide)
chain: RSNLGWLSLLLLPIPLIVWVKRKEVQKT
B2: mouse Fas-TM (transmembrane domain peptide of mouse Fas) (peptide)
chain: RNRLWLLTILVLLIPLVFIYRKYRKRKS

Biological target: the molecule itself
Assay: SDS-PAGE of bicelle-reconstituted peptide

Protein	stoichiometry N
B1	3
B2	3

— article PMC4761300 (Molecular cell, 2016)
